For 1 substance, fold-increase in fractional GSIS, GCG-R-/- islets relative to WT results are on record in patent publication US20110183902A1.

The target in this assay is mouse GCG-R (in pancreatic islets of mice) (mouse) (UniProt Q61606). Description: cell-based or functional assay.
Chain of mouse GCG-R (in pancreatic islets of mice) (mouse) (Q61606 27-485): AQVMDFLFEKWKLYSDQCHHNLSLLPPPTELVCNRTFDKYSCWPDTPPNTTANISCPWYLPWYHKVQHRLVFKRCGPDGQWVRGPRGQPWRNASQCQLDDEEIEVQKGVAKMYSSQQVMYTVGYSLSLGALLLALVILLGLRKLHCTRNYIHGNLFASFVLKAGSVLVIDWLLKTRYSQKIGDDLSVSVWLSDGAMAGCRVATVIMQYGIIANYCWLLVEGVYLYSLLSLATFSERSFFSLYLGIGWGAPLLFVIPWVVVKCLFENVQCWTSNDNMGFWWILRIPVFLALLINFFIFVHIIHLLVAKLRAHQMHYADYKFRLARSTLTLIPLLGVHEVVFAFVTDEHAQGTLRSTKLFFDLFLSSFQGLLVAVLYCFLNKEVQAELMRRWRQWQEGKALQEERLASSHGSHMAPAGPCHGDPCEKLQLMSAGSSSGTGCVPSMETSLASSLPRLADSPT

Regarding “native OXM peptide (species not stated, Example 11)”, the fold-increase in fractional GSIS, GCG-R-/- islets relative to WT is 32 % reduction.
